Residue numbers refer to the chain shown, from its start. In names and notes the source's numbering stands.
B1: D10 E06-hFc (S239/442C T366Y/Y407T) [G4S]3 conjugated to MC-vc-PAB-MMAE (Fc fusion, DAR 4.0)
chain 1: QVQLVESGGGLVQPGGSLRLSCAASGSIFSVNTMGWYRQAPGKQRDLVAVATSGGTIHYADSVKGRFTISRDNAKNTVYLQMNSLKPEDTAVYYCNLVVPYGMIAGDHDYWGQGTKVTVSSGGGGSGGGGSGGGGSEPKSSDKTHTCPPCPAPELLGGPCVFLFPPKPKDTLMISRTPEVTCVVVDVSHEDPEVKFNWYVDGVEVHNAKTKPREEQYNSTYRVVSVLTVLHQDWLNGKEYKCKVSNKALPAPIEKTISKAKGQPREPQVYTLPPSRDELTKNQVSLYCLVKGFYPSDIAVEWESNGQPENNYKTTPPVLDSDGSFFLYSKLTVDKSRWQQGNVFSCSVMHEALHNHYTQKSLCLSPGK
chain 2: QVHLVESGGGLVQAGGSLRLSCAASRRSFSEYAMGWFRQAPGKEREFVAAIGWSGVIEYADSVKGRFTISRDNAKDTVYLQMNSLKPEDTAVYYCAAGLGIRVVSQTPAYWGQGTQVTVSSGGGGSGGGGSGGGGSEPKSSDKTHTCPPCPAPELLGGPCVFLFPPKPKDTLMISRTPEVTCVVVDVSHEDPEVKFNWYVDGVEVHNAKTKPREEQYNSTYRVVSVLTVLHQDWLNGKEYKCKVSNKALPAPIEKTISKAKGQPREPQVYTLPPSRDELTKNQVSLTCLVKGFYPSDIAVEWESNGQPENNYKTTPPVLDSDGSFFLTSKLTVDKSRWQQGNVFSCSVMHEALHNHYTQKSLCLSPGK
modifications: here or on the partner: MC-vc-PAB-MMAE on Cys 239 and Cys 442 (S239C, S442C, EU numbering)
B2: D10 F05-hFc (S239/442C T366Y/Y407T) [G4S]3 conjugated to MC-vc-PAB-MMAE (Fc fusion, DAR 3.9)
chain 1: B1 chain 1
chain 2: QVQLVESGGGLVQAGGSLRLSCAASGRAFGDYNIGWFRQAPGKEREFVARRTWDGSSTRYDDSVKGRFTVSIDNAKNTAYLQMNSLKTEDTAVYYCAAGRYSRVRGWEYDYWGQGTQVTVSSGGGGSGGGGSGGGGSEPKSSDKTHTCPPCPAPELLGGPCVFLFPPKPKDTLMISRTPEVTCVVVDVSHEDPEVKFNWYVDGVEVHNAKTKPREEQYNSTYRVVSVLTVLHQDWLNGKEYKCKVSNKALPAPIEKTISKAKGQPREPQVYTLPPSRDELTKNQVSLTCLVKGFYPSDIAVEWESNGQPENNYKTTPPVLDSDGSFFLTSKLTVDKSRWQQGNVFSCSVMHEALHNHYTQKSLCLSPGK
modifications: here or on the partner: MC-vc-PAB-MMAE on Cys 239 and Cys 442 (S239C, S442C, EU numbering)
B3: A06 F05-hFc (S239/442C T366Y/Y407T) [G4S]3 conjugated to MC-vc-PAB-MMAE (Fc fusion, DAR 4.0)
chain 1: QVHLVESGGGLVQAGGSLRLSCAASGRTFLSMGWFRQAPGKEREFVAAISWTGGSTGYADSVKGRFTISRESDKETMYLQMNSLKPEDTAVYYCAARGDVYYGGDDATRYKYWGQGTQVTVSSGGGGSGGGGSGGGGSEPKSSDKTHTCPPCPAPELLGGPCVFLFPPKPKDTLMISRTPEVTCVVVDVSHEDPEVKFNWYVDGVEVHNAKTKPREEQYNSTYRVVSVLTVLHQDWLNGKEYKCKVSNKALPAPIEKTISKAKGQPREPQVYTLPPSRDELTKNQVSLYCLVKGFYPSDIAVEWESNGQPENNYKTTPPVLDSDGSFFLYSKLTVDKSRWQQGNVFSCSVMHEALHNHYTQKSLCLSPGK
chain 2: B2 chain 2
modifications: here or on the partner: MC-vc-PAB-MMAE on Cys 239 and Cys 442 (S239C, S442C, EU numbering)
B4: D10 F05-hFc (S239/442C T366Y/Y407T) [G4S]1 conjugated to MC-vc-PAB-MMAE (Fc fusion, DAR 4.0)
chain 1: QVQLVESGGGLVQPGGSLRLSCAASGSIFSVNTMGWYRQAPGKQRDLVAVATSGGTIHYADSVKGRFTISRDNAKNTVYLQMNSLKPEDTAVYYCNLVVPYGMIAGDHDYWGQGTKVTVSSGGGGSEPKSSDKTHTCPPCPAPELLGGPCVFLFPPKPKDTLMISRTPEVTCVVVDVSHEDPEVKFNWYVDGVEVHNAKTKPREEQYNSTYRVVSVLTVLHQDWLNGKEYKCKVSNKALPAPIEKTISKAKGQPREPQVYTLPPSRDELTKNQVSLYCLVKGFYPSDIAVEWESNGQPENNYKTTPPVLDSDGSFFLYSKLTVDKSRWQQGNVFSCSVMHEALHNHYTQKSLCLSPGK
chain 2: QVQLVESGGGLVQAGGSLRLSCAASGRAFGDYNIGWFRQAPGKEREFVARRTWDGSSTRYDDSVKGRFTVSIDNAKNTAYLQMNSLKTEDTAVYYCAAGRYSRVRGWEYDYWGQGTQVTVSSGGGGSEPKSSDKTHTCPPCPAPELLGGPCVFLFPPKPKDTLMISRTPEVTCVVVDVSHEDPEVKFNWYVDGVEVHNAKTKPREEQYNSTYRVVSVLTVLHQDWLNGKEYKCKVSNKALPAPIEKTISKAKGQPREPQVYTLPPSRDELTKNQVSLTCLVKGFYPSDIAVEWESNGQPENNYKTTPPVLDSDGSFFLTSKLTVDKSRWQQGNVFSCSVMHEALHNHYTQKSLCLSPGK
modifications: here or on the partner: MC-vc-PAB-MMAE on Cys 239 and Cys 442 (S239C, S442C, EU numbering)
B5: D10 E06-hFc (S239/442C T366Y/Y407T), [G4S]1 linker, MC-vc-PAB-MMAE conjugate, #677 (Fc fusion, DAR 4)
chain 1: B4 chain 1
chain 2: QVHLVESGGGLVQAGGSLRLSCAASRRSFSEYAMGWFRQAPGKEREFVAAIGWSGVIEYADSVKGRFTISRDNAKDTVYLQMNSLKPEDTAVYYCAAGLGIRVVSQTPAYWGQGTQVTVSSGGGGSEPKSSDKTHTCPPCPAPELLGGPCVFLFPPKPKDTLMISRTPEVTCVVVDVSHEDPEVKFNWYVDGVEVHNAKTKPREEQYNSTYRVVSVLTVLHQDWLNGKEYKCKVSNKALPAPIEKTISKAKGQPREPQVYTLPPSRDELTKNQVSLTCLVKGFYPSDIAVEWESNGQPENNYKTTPPVLDSDGSFFLTSKLTVDKSRWQQGNVFSCSVMHEALHNHYTQKSLCLSPGK
modifications: here or on the partner: MC-vc-PAB-MMAE on Cys of S239C and S442C (EU numbering)
B6: D10 E10-hFc (S239/442C T366Y/Y407T), [G4S]1 linker, MC-vc-PAB-MMAE conjugate, #678 (Fc fusion, DAR 4)
chain 1: B4 chain 1
chain 2: B4 chain 2 with A24V, F29L, G30S, R51K, D73E, N74D, N84S, V104A
modifications: here or on the partner: MC-vc-PAB-MMAE on Cys of S239C and S442C (EU numbering)
B7: D10 F05-hFc (S239/442C T366Y/Y407T), [G4S]1 linker, MC-vc-PAB-MMAE conjugate, #679 (Fc fusion, DAR 4)
chain 1: B4 chain 1
chain 2: B4 chain 2
modifications: here or on the partner: MC-vc-PAB-MMAE on Cys of S239C and S442C (EU numbering)
B8: A06 F05-hFc (S239/442C T366Y/Y407T), [G4S]1 linker, MC-vc-PAB-MMAE conjugate, #712 (Fc fusion, DAR 4)
chain 1: QVHLVESGGGLVQAGGSLRLSCAASGRTFLSMGWFRQAPGKEREFVAAISWTGGSTGYADSVKGRFTISRESDKETMYLQMNSLKPEDTAVYYCAARGDVYYGGDDATRYKYWGQGTQVTVSSGGGGSEPKSSDKTHTCPPCPAPELLGGPCVFLFPPKPKDTLMISRTPEVTCVVVDVSHEDPEVKFNWYVDGVEVHNAKTKPREEQYNSTYRVVSVLTVLHQDWLNGKEYKCKVSNKALPAPIEKTISKAKGQPREPQVYTLPPSRDELTKNQVSLYCLVKGFYPSDIAVEWESNGQPENNYKTTPPVLDSDGSFFLYSKLTVDKSRWQQGNVFSCSVMHEALHNHYTQKSLCLSPGK
chain 2: B4 chain 2
modifications: here or on the partner: MC-vc-PAB-MMAE on Cys of S239C and S442C (EU numbering)

Molecular target: ALPP/ALPPL2 on ALPP/ALPPL2 positive cancer cells
Assay: cell-based or functional assay
Throughout, for % viability remaining at 96 h, MKN1 cells: test concentration or dose not given here.
Throughout, for % viability remaining at 96 h, NCI-N87 cells: test concentration or dose not given here.

First: B1
Second: B2
The % viability remaining, MDA-MB-468 cells of the first is lower: 16% for the first, 17% for the second.

B3 and B4 are the same in % viability remaining, MDA-MB-468 cells: 17% for the first, 17% for the second.

Compared with B1, B2 is higher in % viability remaining, MKN-1 cells: 12% for the first, 13% for the second.

B3 and B4 are the same in % viability remaining, MKN-1 cells: 16% for the first, 16% for the second.

Going from B1 to B2, the % viability remaining, NCI-H1651 cells rises from 21% to 22%.

B3 and B4 are the same in % viability remaining, NCI-H1651 cells: 22% for the first, 22% for the second.

First: B1
Second: B2
The % viability remaining, NCI-N87 cells of the first is lower: 34% for the first, 37% for the second.

First: B3
Second: B4
The % viability remaining, NCI-N87 cells of the first is higher: 36% for the first, 35% for the second.

First: B1
Second: B2
The IC50 at 96 h (nM), cell-killing of MDA-MB-468 cells (Cell Titre Glo) of the first is 1.6-fold higher: 1.55 nM for the first, 0.96 nM for the second.

Going from B3 to B4, the IC50 at 96 h (nM), cell-killing of MDA-MB-468 cells (Cell Titre Glo) falls from 12 nM to 2.36 nM (5.1-fold).

B1 and B2 are within 1.5-fold of each other in IC50 at 96 h (nM), cell-killing of MKN-1 cells (Cell Titre Glo): 0.1 nM for the first, 0.12 nM for the second.

Compared with B3, B4 is 1.9-fold lower in IC50 at 96 h (nM), cell-killing of MKN-1 cells (Cell Titre Glo): 0.26 nM for the first, 0.14 nM for the second.

B1 and B2 are within 1.5-fold of each other in IC50 at 96 h (nM), cell-killing of NCI-H1651 cells (Cell Titre Glo): 0.53 nM for the first, 0.74 nM for the second.

First: B3
Second: B4
The IC50 at 96 h (nM), cell-killing of NCI-H1651 cells (Cell Titre Glo) of the first is 1.8-fold lower: 0.47 nM for the first, 0.85 nM for the second.

Going from B1 to B2, the IC50 at 96 h (nM), cell-killing of NCI-N87 cells (Cell Titre Glo) falls from 3.6 nM to 1.8 nM (2-fold).

Going from B3 to B4, the IC50 at 96 h (nM), cell-killing of NCI-N87 cells (Cell Titre Glo) falls from 7.9 nM to 2 nM (4-fold).

Molecular target: ALPP/ALPPL2 on ALPP/ALPPL2 positive cancer cells (MKN1, NCI-H1651, NCI-N87, Caov-3, HPAC)
Assay: cell-based or functional assay

First: B5
Second: B6
The % viability remaining at 96 h, MKN1 cells of the first is lower: 5.3% for the first, 24.5% for the second.

Going from B7 to B8, the % viability remaining at 96 h, MKN1 cells rises from 25.2% to 27.1%.

First: B5
Second: B6
The % viability remaining at 96 h, NCI-H1651 cells of the first is lower: 28.9% for the first, 31% for the second.

Going from B7 to B8, the % viability remaining at 96 h, NCI-H1651 cells rises from 31.2% to 31.3%.

Going from B5 to B6, the % viability remaining at 96 h, NCI-N87 cells falls from 25.5% to 23.6%.

First: B7
Second: B8
The % viability remaining at 96 h, NCI-N87 cells of the first is higher: 21.8% for the first, 20.7% for the second.

Compared with B5, B6 is 3.9-fold lower in IC50 at 96 h, cell-killing of MKN1 cells: 31800 pM for the first, 8100 pM for the second.

Compared with B7, B8 is 4.7-fold higher in IC50 at 96 h, cell-killing of MKN1 cells: 9700 pM for the first, 45900 pM for the second.

First: B5
Second: B6
The IC50 at 96 h, cell-killing of NCI-H1651 cells of the first is 2.2-fold higher: 1300 pM for the first, 600 pM for the second.

B7 and B8 are within 1.5-fold of each other in IC50 at 96 h, cell-killing of NCI-H1651 cells: 800 pM for the first, 900 pM for the second.

B5 and B6 are within 1.5-fold of each other in IC50 at 96 h, cell-killing of NCI-N87 cells: 600 pM for the first, 500 pM for the second.

B7 and B8 are within 1.5-fold of each other in IC50 at 96 h, cell-killing of NCI-N87 cells: 600 pM for the first, 700 pM for the second.

Source: US20260216242A1, “ALPP-SPECIFIC VARIANT ANTIGEN BINDING MOLECULES” (ALMAC DISCOVERY LIMITED, priority 2022, published 2026)
